Test results: the supplement of paper PMC7877785
± gives the uncertainty stated by the source.

Assay: self-splicing fitness, log relative to wild type (ln ratio); higher = more splicing; Tetrahymena group I intron in knt gene, E. coli kanamycin selection, DiMSum; sequences stand for … in CUCUCU…GGAGGGAAAAGUUAUCAGGCAUGCACCUGGUAGCUAGUCUUUAAACCAAUAGAUUGCAUCGGUUUAAAAGGCAAGACCGUCAAAUUGCGGGAAAGGGGUCAACAGCCGUUCAGUACCAAGUCUCAGGGGAAACUUUGAGAUGGCCUUGCAAAGGGUAUGGUAAUAAGCUGACGGACAUGGUCCUAACCACGCAGCCAAGUCCUAAGUCAACAGAUCUUCUGUUGAUAUGGAUGCAGUUCACAGACUAAAUGUCGGUCGGGGAAGAUGUAUUCUUCUCAUAAGAUAUAGUCGGACCUCUCCUUAAUGGGAGCUAGCGGAUGAAGUGAUGCAACACUGGAGCCGCUGGGAACUAAUUUGUAUGCGAAAGUAUAUUGAUUAGUUUUGGAGUACUCGUGGUCG
In short: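 Library with all eight P1ex-region intron nucleotides randomised, intron inside the knt kanamycin-resistance gene on pET-22b(+), in E. coli BL21(DE3). Cells grew overnight at 37°C or 30°C on LB agar with or without 25 μg/mL kanamycin (plus 100 μg/mL carbenicillin, 50 μM IPTG, 0.2% rhamnose), in six replicate transformations. Pooled colonies were amplicon-sequenced on Illumina HiSeq 2500. DiMSum fitness is the error-weighted combination of wild-type-normalised replicate fold changes, kanamycin versus none.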

Sequence | self-splicing fitness (ln) (30 °C) | self-splicing fitness (ln) (37 °C)
CAGCAGCAAUAUUACGGCCG | -0.67 ± 0.08 | -0.622 ± 0.12
CAGCAGCAAUAUUACGGCGU | -1.61 ± 0.07 | -0.859 ± 0.08
CAGCAGCAAUAUUACGGCUA | -0.235 ± 0.088 | 0.311 ± 0.13
CAGCAGCAAUAUUACGGCUC | -0.127 ± 0.081 | -0.486 ± 0.099
CAGCAGCAAUAUUACGGGUA | -3.24 ± 0.19 | -1.73 ± 0.13
CAGCAGCAAUAUUACGGUAU | -3.51 ± 0.15 | -2.62 ± 0.13
CAGCAGCAAUAUUACGGUUG | -3.04 ± 0.11 | -2.62 ± 0.23
CAGCAGCAAUAUUACGUAAA | -3.26 ± 0.14 | -1.95 ± 0.15
CAGCAGCAAUAUUACGUAUA | -2.42 ± 0.18 | -2.81 ± 0.29
CAGCAGCAAUAUUACGUGGU | -3.99 ± 0.19 | -2.93 ± 0.18
CAGCAGCAAUAUUACGUUCG | -0.171 ± 0.056 | 0.0532 ± 0.076
CAGGAGCAAUAUUACGACCU | -1.36 ± 0.13 | -0.563 ± 0.17
CAGGAGCAAUAUUACGAGAA | – | -0.522 ± 0.22
CAGGAGCAAUAUUACGAUAG | -1.19 ± 0.12 | -0.223 ± 0.13
CAGGAGCAAUAUUACGAUCG | -0.865 ± 0.08 | 0.258 ± 0.1
CAGGAGCAAUAUUACGAUGG | -0.317 ± 0.091 | 0.171 ± 0.13
CAGGAGCAAUAUUACGAUUU | -3.81 ± 0.28 | -0.961 ± 0.13
CAGGAGCAAUAUUACGCACA | -2.48 ± 0.24 | -1.88 ± 0.23
CAGGAGCAAUAUUACGCAUG | -3.78 ± 0.28 | -1.89 ± 0.2
CAGGAGCAAUAUUACGCCAU | -2.73 ± 0.33 | -1.55 ± 0.41
CAGGAGCAAUAUUACGCCGG | – | -2.22 ± 0.24
CAGGAGCAAUAUUACGCGGG | -0.771 ± 0.15 | -1.84 ± 0.14
CAGGAGCAAUAUUACGGAAG | -2.2 ± 0.13 | -1.67 ± 0.14
CAGGAGCAAUAUUACGGACU | -1.86 ± 0.14 | -1.75 ± 0.3
CAGGAGCAAUAUUACGGAUA | – | -0.862 ± 0.41
CAGGAGCAAUAUUACGGCCA | – | 0.122 ± 0.3
CAGGAGCAAUAUUACGGUAA | – | -2.51 ± 0.44

Sequence | self-splicing fitness (ln) (30 °C) | self-splicing fitness (ln) (37 °C)
CAGGAGCAAUAUUACGGUAG | -0.725 ± 0.12 | -0.902 ± 0.13
CAGGAGCAAUAUUACGGUGC | -2.68 ± 0.26 | -1.76 ± 0.28
CAGGAGCAAUAUUACGUAAG | -0.111 ± 0.097 | 0.23 ± 0.12
CAGGAGCAAUAUUACGUACA | -2.55 ± 0.49 | -1.73 ± 0.42
CAGGAGCAAUAUUACGUCGU | – | -1.97 ± 0.37
CAGGAGCAAUAUUACGUUAA | -3.28 ± 0.43 | -2.66 ± 0.26
CAGGAGCAAUAUUACGUUAG | -1.45 ± 0.084 | -0.918 ± 0.12
CAGGAGCAAUAUUACGUUCA | -2.89 ± 0.12 | -3.54 ± 0.2
CAGUAGCAAUAUUACGAACU | -1.4 ± 0.22 | -1.05 ± 0.17
CAGUAGCAAUAUUACGACAC | -2.36 ± 0.22 | -1.28 ± 0.23
CAGUAGCAAUAUUACGACAG | -0.798 ± 0.093 | -0.214 ± 0.12
CAGUAGCAAUAUUACGACGG | -0.119 ± 0.085 | 0.411 ± 0.11
CAGUAGCAAUAUUACGAGCG | -0.475 ± 0.087 | 0.263 ± 0.12
CAGUAGCAAUAUUACGAGGG | -2.85 ± 0.13 | -4.18 ± 0.46
CAGUAGCAAUAUUACGAUAC | -3.55 ± 0.36 | -2.51 ± 0.41
CAGUAGCAAUAUUACGAUCG | 0.0663 ± 0.15 | 0.475 ± 0.17
CAGUAGCAAUAUUACGCCAU | -0.742 ± 0.18 | -2.87 ± 0.47
CAGUAGCAAUAUUACGCCUA | -0.488 ± 0.14 | -0.218 ± 0.15
CAGUAGCAAUAUUACGCGAA | -4.22 ± 0.43 | -2.8 ± 0.31
CAGUAGCAAUAUUACGCGUC | -4.24 ± 0.31 | -2.83 ± 0.24
CAGUAGCAAUAUUACGGACC | -2.15 ± 0.36 | –
CAGUAGCAAUAUUACGGCAA | -3.53 ± 0.39 | -1.86 ± 0.27
CAGUAGCAAUAUUACGGGCA | -3.05 ± 0.27 | -2.35 ± 0.25
CAGUAGCAAUAUUACGGGCC | -2.57 ± 0.31 | -2.19 ± 0.3
CAGUAGCAAUAUUACGGUAU | -3.79 ± 0.27 | -3.02 ± 0.28
CAGUAGCAAUAUUACGGUCU | -3.35 ± 0.15 | -1.89 ± 0.14
CAGUAGCAAUAUUACGGUUG | -1.52 ± 0.065 | -0.838 ± 0.083

Sequence | self-splicing fitness (ln) (30 °C) | self-splicing fitness (ln) (37 °C)
CAGUAGCAAUAUUACGUAAC | – | -0.919 ± 0.33
CAGUAGCAAUAUUACGUUAG | -1.32 ± 0.072 | 0.119 ± 0.096
CAGUAGCAAUAUUACGUUCU | – | -1.41 ± 0.2
CAUAAGCAAUAUUACGAACU | -2.47 ± 0.23 | -2.69 ± 0.29
CAUAAGCAAUAUUACGCGUA | -1.76 ± 0.11 | -2.02 ± 0.16
CAUAAGCAAUAUUACGGACC | -3.27 ± 0.31 | -3.87 ± 0.23
CAUAAGCAAUAUUACGGGUU | -3.37 ± 0.21 | -3.73 ± 0.24
CAUAAGCAAUAUUACGGUGG | -1.24 ± 0.075 | -0.683 ± 0.088
CAUAAGCAAUAUUACGGUGU | -3.84 ± 0.15 | -2.38 ± 0.14
CAUAAGCAAUAUUACGUGAU | -3.26 ± 0.16 | -2.41 ± 0.16
CAUAAGCAAUAUUACGUUGC | -4.07 ± 0.3 | -3.3 ± 0.3
CAUAAGCAAUAUUACGUUUU | -4.55 ± 0.22 | -2.54 ± 0.15
CAUCAGCAAUAUUACGAAUU | -1.2 ± 0.11 | -1.55 ± 0.14
CAUCAGCAAUAUUACGAGGG | -2.04 ± 0.13 | -0.928 ± 0.12
CAUCAGCAAUAUUACGAUGU | -3.52 ± 0.15 | -2.58 ± 0.15
CAUCAGCAAUAUUACGCACU | -1.99 ± 0.092 | -1.17 ± 0.098
CAUCAGCAAUAUUACGCAUA | -1.59 ± 0.089 | -0.647 ± 0.1
CAUCAGCAAUAUUACGCCCC | -1.56 ± 0.21 | –
CAUCAGCAAUAUUACGCCUA | -1.55 ± 0.1 | -1.03 ± 0.1
CAUCAGCAAUAUUACGCGAC | -4.17 ± 0.29 | -2.92 ± 0.22
CAUCAGCAAUAUUACGCGUA | -0.586 ± 0.089 | -0.774 ± 0.083
CAUCAGCAAUAUUACGCUAU | -2.87 ± 0.13 | -2.64 ± 0.2
CAUCAGCAAUAUUACGCUCC | -2.75 ± 0.24 | -2.3 ± 0.28
CAUCAGCAAUAUUACGGACA | -0.235 ± 0.21 | -1.16 ± 0.15
CAUCAGCAAUAUUACGGAGG | -1.24 ± 0.12 | -0.916 ± 0.14
